Here are results for four compounds from patent publication US20260224761A1, “DUAL LABELLED COMPOUNDS TARGETING THE PROSTATE SPECIFIC MEMBRANE ANTIGEN” (priority 2023, published 2026).

Series [1] addresses T1, PSMA (Homo sapiens, UniProt Q04609).
T1 construct: using PSMA-expressing LNCaP cells and ([^125I]I-BA)EuK as standard radioligand; endogenous in cells; host or cells: LNCaP cells
Briefly: Competitive binding experiments (IC50) using PSMA-expressing LNCaP cells and ([125I]I-BA)EuK as standard radioligand. The protocol:
Competitive binding experiments (IC50) were carried out in accordance with an established protocol ([…]. et al., Eur. J. Nuc. Mol. Med. Imaging Res., 2014, 4, 63) using PSMA-expressing LNCaP cells and ([^125I]I-BA)EuK as standard radioligand.

The nature of series [2]: Biodistribution in LNCaP xenograft bearing NSG mice. It is filed as in vivo. The settings on record: NSG, mouse, in vivo, iv, total radioactivity; for tissue uptake at 2 h: 1 nmol/animal; for tissue uptake at 6 h: 0.1 nmol/animal. The protocol: (§1) The biodistribution of [^99mTc]PSMA-HSG, [^99mTc]EuK(SO3)Cy5-mas3 and [^99mTc]EuK(SO3)Cy5(SO3)-mas3 was investigated in LNCaP xenograft bearing NSG mice. […] (0.1 nmol-cohort), respectively.
(§2) To assess the influence of the different ligand designs of [^99mTc]PSMA-HSG and [^99mTc]mas3-(SO3)Cy5(SO3)—EuK on in vivo PSMA-targeting and general pharmacokinetics, their in vivo biodistribution was investigated in LNCaP xenograft bearing NSG mice in two different experimental settings: • A) at 2 h p.i. using a ligand dose of 1 nmol/animal. These conditions were chosen to allow comparability of the data from this study (Table 3) with previous results in a different tumor model (Hensbergen, A. W. et al., J. Nucl. Med., 2020, 61, 234-241). Here, [^99mTc]mas3-Cy5(SO3)—EuK was additionally included as an internal reference to establish the “missing link” between studies. • B) at 6 h p.i. using a ligand dose of 0.1 nmol/animal (Table 4). The latter settings were adapted to a timeline and dosing with more similarity to the clinical situation (surgery at a later time point, microdosing principle). Of note, however, a ligand amount of 0.1 nmol/mouse (extrapolation: 280 nmol/70 kg patient) still exceeds the potentially applicable clinical dose (48 nmol/70 kg patient for a compound with a molecular weight of −2100 g/mol). Nevertheless, it represents a dose level at which significant competition effects between unlabeled precursor and radioligand for PSMA binding sites in tumor tissue are not probable (Eder A. C. et al., J. Nucl. Med., 2021, 62, 1461-1467; Kalidindi T. M. et al., Eur. J. Nucl. Med. Mol. Imaging, 2021, 48, 2642-2651).

The nature of series [3]: Plasma protein binding. The settings on record: plasma. It is filed as in vitro ADME. The protocol:
Quantum yield, molar extinction coefficient and serum protein binding experiments were performed according to previously published procedures (Hensbergen A. W. et al., Dyes and Pigments, 2018, 152, 19-28).

Series [4] in a line: Lipophilicity, modified shake-flask method. It is filed as physicochemical. The protocol:
The lipophilicity of [^99mTc]PSMA-HSG, [^99mTc]EuK(SO3)Cy5-mas3 and [^99mTc]EuK(SO3)Cy5(SO3)-mas3 was determined via a modified shake-flask method as described ([…]. et al., Eur. J. Nuc. Mol. Med. Imaging Res., 2014, 4, 63).

Series [5] concerns the target T1, PSMA. The settings on record: LNCaP cells; reference compounds, assayed under identical conditions (literature cited in table title); # = free mas3-chelator; cited from earlier work.
The test system of series [6] is PC346C orthotopic xenografts in Balb/c nude mice. The settings on record: 1 nmol ligand, 2 h p.i.; cited from earlier work.
The test system of series [7] is LNCaP xenograft bearing NSG mice. The series can be described thus: Biodistribution in LNCaP xenograft bearing NSG mice. It is filed as in vivo. The protocol: as §1, §2

Where two headings read alike, the source gives them in different places. Where a SMILES comes first, the peptide text is derived from it. [ ]: non-standard residue; d: D form. The star is where a group is joined. X1 = O=C(O)CC[C@H](NC(=O)N[C@@H](CCCCNC(=O)CCCCCCC(=O)*)C(=O)O)C(=O)O; d2Nal = N[C@H](Cc1ccc2ccccc2c1)C(=O)O; Mercaptoacetyl = O=C(CS)*

T1 sequence (Q04609 whole entry): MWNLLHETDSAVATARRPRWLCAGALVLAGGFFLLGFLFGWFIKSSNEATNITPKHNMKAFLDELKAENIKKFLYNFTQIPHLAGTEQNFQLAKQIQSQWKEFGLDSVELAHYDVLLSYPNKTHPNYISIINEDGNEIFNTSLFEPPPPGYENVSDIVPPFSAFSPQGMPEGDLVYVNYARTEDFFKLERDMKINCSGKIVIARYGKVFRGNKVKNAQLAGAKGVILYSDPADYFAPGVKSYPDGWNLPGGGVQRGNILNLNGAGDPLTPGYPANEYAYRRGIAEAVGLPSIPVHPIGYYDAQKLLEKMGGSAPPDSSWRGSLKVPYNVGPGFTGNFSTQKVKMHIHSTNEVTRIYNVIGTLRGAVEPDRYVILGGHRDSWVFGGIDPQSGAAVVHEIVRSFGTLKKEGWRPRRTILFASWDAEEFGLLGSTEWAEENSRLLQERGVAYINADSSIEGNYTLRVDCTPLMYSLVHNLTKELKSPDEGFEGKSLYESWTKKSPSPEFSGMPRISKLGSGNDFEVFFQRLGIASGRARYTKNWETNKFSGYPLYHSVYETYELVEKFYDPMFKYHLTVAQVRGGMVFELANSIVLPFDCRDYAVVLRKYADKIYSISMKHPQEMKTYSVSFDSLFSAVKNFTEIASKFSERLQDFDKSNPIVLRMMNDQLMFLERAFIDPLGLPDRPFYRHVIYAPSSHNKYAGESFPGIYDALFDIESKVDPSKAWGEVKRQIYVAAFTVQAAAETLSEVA

With `CC1(C)C(/C=C/C=C/C=C2/N(CCCCNC(=O)CCCCCNC(=O)[C@@H](CO)NC(=O)[C@@H](CO)NC(=O)[C@@H](CO)NC(=O)CS)c3ccc(S(=O)(=O)O)cc3C2(C)C)=[N+](CCCCCC(=O)NCCCC[C@H](NC(=O)N[C@@H](CCC(=O)O)C(=O)O)C(=O)O)c2ccc(S(=O)(=O)[O-])cc21` [[^99mTc]mas3-(SO3)Cy5(SO3)-EuK, metal not drawn], the “lower PSMA-affinity compared to [99mTc]PSMA-HSG” value in series [1] is on record as 4.5 fold. For the same compound, the tissue uptake at 2 h is 3.5 ± 1.1 %ID/g in series [2] (Biodistribution: LNCaP tumor); 0.7 ± 0.1 %ID/g in series [2] (Biodistribution: blood); 0.3 ± 0.1 %ID/g in series [2] (Biodistribution: heart); 4.2 ± 0.4 %ID/g in series [2] (Biodistribution: intestines); 59.2 ± 14.4 %ID/g in series [2] (Biodistribution: kidneys); 1 ± 0.4 %ID/g in series [2] (Biodistribution: liver). Further, the tissue uptake at 2 h in series [2] (Biodistribution: lung) amounted to 1.1 ± 0.2 %ID/g; in series [2] (Biodistribution: muscle), 0.2 ± 0.03 %ID/g; in series [2] (Biodistribution: pancreas), 0.3 ± 0.1 %ID/g; in series [2] (Biodistribution: salivary glands) it was 3.1 ± 0.5 %ID/g; in series [2] (Biodistribution: spleen), 4.3 ± 1.3 %ID/g; in series [2] (Biodistribution: stomach), 0.6 ± 0.1 %ID/g. Besides, in series [3] (Plasma Protein Binding (%)), the fraction unbound is 0.256. Besides, in series [4], the logP was -2.99.
Regarding `CC(=O)SCC(=O)N[C@H](CO)C(=O)N[C@H](CO)C(=O)N[C@H](CO)C(=O)N[C@H](CCCCNC(=O)CCCCCN1\C(=C/C=C/C=C/C2=[N+](C)c3ccc(S(=O)(=O)O)cc3C2(C)C)C(C)(C)c2cc(S(=O)(=O)O)ccc21)C(=O)N[C@H](Cc1ccc(O)cc1)C(=O)N[C@H](Cc1ccc2ccccc2c1)C(=O)N[C@H](CCCCNC(=O)CCCCCCC(=O)NCCCC[C@H](NC(=O)N[C@@H](CCC(=O)O)C(=O)O)C(=O)O)C(=O)O` [PSMA-HSG, Ac-mas3-k(Sulfo-Cy5)-γ-nal-k-Sub-EuK], the IC50 in series [1] (LNCaP cells, free mas3-chelator, novel compounds) was 29.6 ± 5.6 nM.
With `O=C(O)CC[C@H](NC(=O)N[C@@H](CCCCNC(=O)CCCCCCC(=O)NCCCC[C@@H](NC(=O)[C@@H](Cc1ccc2ccccc2c1)NC(=O)[C@@H](Cc1ccc(O)cc1)NC(=O)[C@H](CO)NC(=O)[C@H](CO)NC(=O)[C@H](CO)NC(=O)CS)C(=O)O)C(=O)O)C(=O)O` [PSMA-I&S] (Mercaptoacetyl-SSS[dY][d2Nal][dK](X1)-OH), the IC50 in series [5] was 39.7 ± 1.2 nM.
Regarding `CC1(C)C(/C=C/C=C/C=C2/N(CCCCNC(=O)CCCCNC(=O)[C@@H](CO)NC(=O)[C@@H](CO)NC(=O)[C@@H](CO)NC(=O)CS)c3ccccc3C2(C)C)=[N+](CCCCCC(=O)NCCCC[C@H](NC(=O)N[C@@H](CCC(=O)O)C(=O)O)C(=O)O)c2ccc(S(=O)(=O)[O-])cc21` [[^99mTc]mas3-Cy5(SO3)-EuK, metal not drawn], in series [6], the absolute intestinal uptake is 1.61±0.29 % iD/g. Besides, the tumor accumulation in series [6] is given as 15.2±2.9 % iD/g. Moreover, the tissue uptake at 6 h was determined as 8.1 ± 1.4 %ID/g in series [2] (6 h p.i., read-out: Biodistribution: LNCaP tumor); 0.7 ± 0.1 %ID/g in series [2] (6 h p.i., read-out: Biodistribution: blood); 0.3 ± 0.1 %ID/g in series [2] (6 h p.i., read-out: Biodistribution: heart); 9.7 ± 1.1 %ID/g in series [2] (6 h p.i., read-out: Biodistribution: intestines); 70 ± 22 %ID/g in series [2] (6 h p.i., read-out: Biodistribution: kidneys); 1.7 ± 0.3 %ID/g in series [2] (6 h p.i., read-out: Biodistribution: liver). In addition, the tissue uptake at 6 h stood at 0.8 ± 0.2 %ID/g in series [2] (6 h p.i., read-out: Biodistribution: lung); 0.2 ± 0.1 %ID/g in series [2] (6 h p.i., read-out: Biodistribution: muscle); 0.3 ± 0.1 %ID/g in series [2] (6 h p.i., read-out: Biodistribution: pancreas); 8.9 ± 2.1 %ID/g in series [2] (6 h p.i., read-out: Biodistribution: salivary glands); 1.9 ± 0.6 %ID/g in series [2] (6 h p.i., read-out: Biodistribution: spleen); 1.4 ± 0.3 %ID/g in series [2] (6 h p.i., read-out: Biodistribution: stomach). Moreover, the tissue to tissue ratio at 6 h in series [2] (0.1 nmol/mouse, 6 h p.i., 0.1 nmol, read-out: tumor/kidney ratio) amounted to 0.12 ± 0.04. The tissue uptake at 2 h stood at 6.6 ± 2.8 %ID/g in series [2] (2 h p.i., read-out: Biodistribution: LNCaP tumor); 0.9 ± 0.1 %ID/g in series [2] (2 h p.i., read-out: Biodistribution: blood); 0.4 ± 0.1 %ID/g in series [2] (2 h p.i., read-out: Biodistribution: heart); 6.3 ± 2.5 %ID/g in series [2] (2 h p.i., read-out: Biodistribution: intestines); 21 ± 4.2 %ID/g in series [2] (2 h p.i., read-out: Biodistribution: kidneys); 1.3 ± 0.5 %ID/g in series [2] (2 h p.i., read-out: Biodistribution: liver). The tissue uptake at 2 h in series [2] (2 h p.i., read-out: Biodistribution: lung) stood at 1.1 ± 0.1 %ID/g; in series [2] (2 h p.i., read-out: Biodistribution: muscle), 0.2 ± 0.03 %ID/g; in series [2] (2 h p.i., read-out: Biodistribution: pancreas), 0.3 ± 0.1 %ID/g; in series [2] (2 h p.i., read-out: Biodistribution: salivary glands) it was 1.7 ± 0.3 %ID/g; in series [2] (2 h p.i., read-out: Biodistribution: spleen), 1.9 ± 0.5 %ID/g; in series [2] (2 h p.i., read-out: Biodistribution: stomach) it was 0.5 ± 0.1 %ID/g. Moreover, in series [2] (1 nmol/mouse, 2 h p.i., 1 nmol, read-out: tumor/kidney ratio), the tissue to tissue ratio at 2 h amounted to 0.31 ± 0.15. The “kidney accumulation compared to both ligands containing disulfo-Cy5” value in series [7] (2 h p.i., 1 nmol/animal) is “threefold lower”. Besides, in series [7] (6 h p.i./0.1 nmol versus 2 h p.i./1 nmol), the “increase of tumor accumulation over time” value is given as “only slightly increased”. Moreover, the fraction unbound in series [3] (radiolabelled tracer, four tracers compared in this study, read-out: Plasma Protein Binding (%) (converted)) is 0.035. Further, in series [4] (radiolabelled tracer, shake-flask, read-out: lipophilicity [log POW]), the logP is -1.94.

A word on the IC50: it is the point on the concentration scale where inhibition reaches its midpoint.
